Reference: US8409577 (EMERGENT PRODUCT DEVELOPMENT SEATTLE, dated 2013)

Molecular target: T1, CD20 (human, UniProt P11836 1-297)
T1 construct: whole, on cells; target on WIL2-S (WIL-2S), Ramos and BJAB cells; also called human CD20
T1 sequence (looked up): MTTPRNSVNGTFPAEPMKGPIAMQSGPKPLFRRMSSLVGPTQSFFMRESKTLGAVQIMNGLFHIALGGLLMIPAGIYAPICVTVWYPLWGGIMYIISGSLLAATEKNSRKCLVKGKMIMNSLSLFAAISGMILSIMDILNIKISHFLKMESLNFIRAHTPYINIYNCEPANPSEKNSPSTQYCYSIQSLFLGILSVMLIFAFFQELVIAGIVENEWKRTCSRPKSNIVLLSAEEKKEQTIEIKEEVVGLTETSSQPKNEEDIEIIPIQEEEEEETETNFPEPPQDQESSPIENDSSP
Assay: flow cytometry: 2e12 HL SMIP on WIL-2S cells (CD20), then CD28mIgG 5 ug/ml and FITC anti-mouse 1:100
Protocol: In this case, the fusion proteins were first bound to WIL-2S CD20 expressing cells, and binding was then detected with CD28mIgG (5 µg/ml) and FITC anti-mouse reagent at 1:100.

B1: 2E12IgG-VHVL SMIP (Fc fusion)
chain: VQVQLKESGPGLVAPSQSLSITCTVSGFSLTGYGVNWVRQPPGKGLEWLGMIWGDGSTDYNSALKSRLSITKDNSKSQVFLKMNSLQTDDTARYYCARDGYSNFHYYVMDYWGQGTSVTVSSGGGGSGGGGSGGGGSGGGGSDIVLTQSPASLAVSLGQRATISCRASESVEYYVTSLMQWYQQKPGQPPKLLISAASNVESGVPARFSGSGSGTDFSLNIHPVEEDDIAMYFCQQSRKVPWTFGGGTKLEIKR
notes: also called 2e12 VHVL SMIP; 2e12 HL SMIP; not shown: IgG hinge-CH2-CH3 of the SMIP, not described
- binding result: no binding (tested: about 5 ug/mL (read off the axis))
